The values below come from patent US20070148663A1 (TRUSTEES OF COLUMBIA UNIVERSITY IN THE CITY OF NEW YORK, published 2007).

B1: GST-EB1 (other, mouse, UniProt Q61166 1-268, looked up)
chain: MAVNVYSTSVTSDNLSRHDMLAWINESLQLNLTKIEQLCSGAAYCQFMDMLFPGSIALKKVKFQAKLEHEYIQNFKILQAGFKRMGVDKIIPVDKLVKGKFQDNFEFVQWFKKFFDANYDGKEYDPVAARQGQETAVAPSLVAPALSKPKKPLGSSTAAPQRPIATQRTTAAPKAGPGMVRKNPGVGNGDDEAAELMQQVKVLKLTVEDLEKERDFYFGKLRNIELICQENEGENDPVLQRIVDILYATDEGFVIPDEGGPQEEQEEY
notes: not shown: glutathione S-transferase (GST) tag, N-terminal, vector pGEX-2T
B6: GST-APC-C1 (amino acids 2674-2843) (other, UniProt P25054 2674-2843, looked up)
chain: SPTGNTPPVIDSVSEKANPNIKDSKDNQAKQNVGNGSVPMRTVGLENRLNSFIQVDAPDQKGTEIKPGQNNPVPVSETNESSIVERTPFSSSSSSKHSSPSGTVAARVTPFNYNPSPRKSSADSTSARPSQIPTPVNNNTKKRDSKTDSTESSGTQSPKRHSGSYLVTSV
notes: range 2674-2843; Gift from R. Baer; not shown: glutathione S-transferase (GST) tag

In one assay the target is T1, ΔGBDΔDADG(YEKR)-mDia2 (UniProt Q9Z207 258-1030, limits assumed, 35S-methionine label (in the binding assay)).
T1 construct: a GFP-myc-tagged form was expressed in 3T3 cells for the Glu-MT assay; also called G(YEKR) mutation
The assay is described as follows: GST pull-down of 35S-labelled in vitro translated protein, autoradiography. From the text:
(§1) EB1 and APC interact with mDia. (a) Binding of in vitro transcribed and translated ³⁵S-labelled ΔGBD-mDia2 to the indicated GST-tagged constructs of EB1 and APC (bottom). Arrows indicate full-length GST-APC-C or GST-APC-basic proteins. Additional bands detected in the GST-APC-C and GST-APC-basic lanes are presumed to be breakdown products. (b) Binding of in vitro transcribed and translated ³⁵S-labelled mDia2 fragments to GST-EB1, GST and GST-APC-C. (c) Binding of Flag-mDia1 expressed in COS-7 cells to GST-EB1 and GST-APC-C in the presence of DMSO, nocodazole (NZ) and latrunculin A (Lat A). Bound proteins were detected by western blotting with antibodies to Flag-mDia1, tubulin and actin. […] Bound His-mDia was detected by western blotting with an anti-His antibody. (e) Endogenous mDia1 and EB1 co-immunoprecipitate with APC. Mouse brain extracts and COS-7 cell lysates were immunoprecipitated with APC antibodies and precipitates analyzed for APC, mDia1 and EB1 by western blotting with the indicated antibodies. IgG, non-immune immunoglobulin G used for control immunoprecipitation. (f) Schematic representation of the interactions between mDia, EB1 and APC. EB1 and APC bind to mDia through different domains than they use to bind to each other. Note that although EB1 and APC bind to the FH1-FH2 region of mDia, the individual binding sites within this domain have not been mapped. The molecules are not drawn to scale.
(§2) mDia2 transcripts labeled with ³⁵S-methionine (Amersham Biosciences) were generated with Quick-Coupled Transcription/Translation Systems (Promega). Equal molar amounts of GST, GST-EB1 or GST-APC on beads were incubated with labeled transcripts for 2 h at 4° C. in PBS containing 1% Triton X-100 and protease inhibitors. After washing, bound proteins were eluted with SDS sample buffer and analyzed by SDS-PAGE. Gels were incubated for 15-30 min in Amplify (Amersham Biosciences), dried and autoradiographed for 1-24 h. Flag-mDia1 (40) was transfected into COS-7 cells, lysates prepared and treated with 0.5 μM latrunculin A, 10 μM nocodazole or DMSO for 1 h on ice.

Assay [1] deals with T2, mDia2 FH2 domain fragment, in vitro transcribed and translated, 35S-labelled (UniProt Q9Z207 615-1013, limits assumed, 35S-methionine label).
T2 construct: domain: FH2
The description is as above.
From the text: as §1, §2

The target in assay [2] is T3, His-521-1040-mDia2 (purified recombinant protein) (UniProt Q9Z207 521-1040).
T3 construct: also called His-mDia; not shown: His tag of vector pQE-30 (detected with RGS-His antibody)
The assay is described as follows: direct binding of purified recombinant proteins, GST pull-down, anti-His western blot. The source says:
Bound proteins were detected by western blotting with antibodies to Flag-mDia1, tubulin and actin. […] Bound His-mDia was detected by western blotting with an anti-His antibody. (e) Endogenous mDia1 and EB1 co-immunoprecipitate with APC. Mouse brain extracts and COS-7 cell lysates were immunoprecipitated with APC antibodies and precipitates analyzed for APC, mDia1 and EB1 by western blotting with the indicated antibodies. IgG, non-immune immunoglobulin G used for control immunoprecipitation. (f) Schematic representation of the interactions between mDia, EB1 and APC. EB1 and APC bind to mDia through different domains than they use to bind to each other. Note that although EB1 and APC bind to the FH1-FH2 region of mDia, the individual binding sites within this domain have not been mapped. The molecules are not drawn to scale.
mDia2 transcripts labeled with ³⁵S-methionine (Amersham Biosciences) were generated with Quick-Coupled Transcription/Translation Systems (Promega). […] After washing, bound proteins were eluted with SDS sample buffer and analyzed by SDS-PAGE. […] The treated lysates were incubated with GST-tagged constructs as described above and analyzed by western blotting with mouse anti-Flag-M2 antibody (1:10,000; Sigma), rabbit anti-tubulin10 (W2; 1:50,000) and mouse anti-actin (C4D6; 1:50,000). […] Bound proteins were analyzed by western blotting with mouse RGS-His antibody (1:10,000).

For assay [3], the target named is B6. The assay is described as follows: GST pull-down from COS-7 lysates, anti-GFP western blot. The source says:
Residues of EB1 that were mutated to the indicated residues (below) are shaded in grey. (b) Diagram of GST-APC constructs used in this study. APC has a microtubule-binding site (labeled ‘Basic’) and a separate EB1-binding site in its C-terminus. (c) Pull-down analysis of wild type (WT) EB1-C-GFP and mutant EB1-C-GFPs by GST-APC-C1 and GST-p150^Glued (1-330). Western blots were probed with anti-GFP antibody. (d) The ability of EB1-C-GFP wild type (WT) and mutants to inhibit LPA-stimulated Glu-MTs in serum-starved 3T3 cells. All EB1-C-GFP constructs were expressed at equivalent levels on the basis of GFP fluorescence. Error bars represent the standard error from at least three independent experiments. (e) EB1-GFP and EB1-C-GFP interact with endogenous APC in cells. COS-7 cells were transiently transfected and immunoprecipitated as indicated. Western blots of the immunoprecipitates were probed with EB1 antibody. […] Cells expressing APC (untagged) were detected with antibody to APC. […]
For binding of wild-type and mutant EB1-C-GFP to APC or p150^Glued, COS-7 cells were transfected with EB1-C-GFP constructs and lysed in PBS containing 1% Triton X-100 and protease inhibitors. […] Bound proteins were analyzed by western blotting with rabbit anti-GFP (1:10,000; BD Transduction Laboratory). […] Bound proteins were eluted with SDS sample buffer and analyzed by western blotting for EB1.

The assay “GST-EB1” addresses B1. The assay is described as follows: GST pull-down of 35S-labelled in vitro translated protein, autoradiography.
From the text: as §1, §2

The target in assay [4] is T4, GST-APC-C (amino acids 2167-2843) (UniProt P25054 2167-2843).
T4 construct: range 2167-2843; Gift from R. Baer; not shown: glutathione S-transferase (GST) tag
The assay is described as above.
From the text: as §1, §2

T3 sequence (Q9Z207 521-1040): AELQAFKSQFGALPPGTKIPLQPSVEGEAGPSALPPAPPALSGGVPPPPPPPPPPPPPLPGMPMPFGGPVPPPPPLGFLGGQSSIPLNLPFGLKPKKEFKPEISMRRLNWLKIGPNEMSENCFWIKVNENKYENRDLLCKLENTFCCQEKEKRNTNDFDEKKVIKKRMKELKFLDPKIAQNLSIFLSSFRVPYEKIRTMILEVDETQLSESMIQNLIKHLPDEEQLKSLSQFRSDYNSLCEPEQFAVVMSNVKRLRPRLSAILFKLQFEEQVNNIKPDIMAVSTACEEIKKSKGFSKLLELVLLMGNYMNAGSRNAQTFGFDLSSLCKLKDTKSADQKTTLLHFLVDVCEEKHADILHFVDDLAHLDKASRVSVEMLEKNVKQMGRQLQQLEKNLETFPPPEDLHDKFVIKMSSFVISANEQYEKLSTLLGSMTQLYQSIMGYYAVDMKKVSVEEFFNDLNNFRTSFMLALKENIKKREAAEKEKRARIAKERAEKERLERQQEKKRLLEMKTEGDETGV
T2 sequence (Q9Z207 615-1013 limits assumed): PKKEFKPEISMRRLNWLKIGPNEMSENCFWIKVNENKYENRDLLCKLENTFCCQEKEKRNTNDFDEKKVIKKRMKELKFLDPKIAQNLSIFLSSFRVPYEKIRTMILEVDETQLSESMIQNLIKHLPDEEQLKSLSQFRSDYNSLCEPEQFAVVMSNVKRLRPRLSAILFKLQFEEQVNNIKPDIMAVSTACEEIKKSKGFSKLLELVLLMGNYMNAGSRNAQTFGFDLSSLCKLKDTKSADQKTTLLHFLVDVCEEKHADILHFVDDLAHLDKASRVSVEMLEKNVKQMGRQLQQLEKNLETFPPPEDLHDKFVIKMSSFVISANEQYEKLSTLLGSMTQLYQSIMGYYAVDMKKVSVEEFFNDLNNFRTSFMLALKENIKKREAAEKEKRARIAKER
T1 sequence (Q9Z207 other isoform, or with tags, fused parts or gaps mutant limits assumed): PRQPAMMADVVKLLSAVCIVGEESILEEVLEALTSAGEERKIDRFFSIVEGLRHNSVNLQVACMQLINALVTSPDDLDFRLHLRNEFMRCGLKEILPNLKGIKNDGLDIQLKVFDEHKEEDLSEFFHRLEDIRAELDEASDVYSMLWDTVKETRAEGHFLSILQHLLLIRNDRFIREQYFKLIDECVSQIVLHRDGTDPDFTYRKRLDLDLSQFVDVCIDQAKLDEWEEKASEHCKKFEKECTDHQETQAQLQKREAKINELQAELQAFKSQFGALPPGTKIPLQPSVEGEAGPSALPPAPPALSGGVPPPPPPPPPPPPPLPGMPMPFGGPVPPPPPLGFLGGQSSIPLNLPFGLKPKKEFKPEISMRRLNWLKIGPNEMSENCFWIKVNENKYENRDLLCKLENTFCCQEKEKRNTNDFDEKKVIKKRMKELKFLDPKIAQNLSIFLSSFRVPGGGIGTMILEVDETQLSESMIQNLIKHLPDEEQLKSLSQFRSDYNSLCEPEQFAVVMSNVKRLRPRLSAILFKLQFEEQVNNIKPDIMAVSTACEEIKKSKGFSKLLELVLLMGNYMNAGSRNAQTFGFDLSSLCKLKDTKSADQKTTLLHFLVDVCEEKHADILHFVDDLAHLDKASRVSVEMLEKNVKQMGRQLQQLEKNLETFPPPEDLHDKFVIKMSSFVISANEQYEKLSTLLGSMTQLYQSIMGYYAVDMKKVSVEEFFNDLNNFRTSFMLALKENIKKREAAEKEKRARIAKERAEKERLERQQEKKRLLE

For the molecule B1, the binding result (with ΔGBDΔDADG(YEKR)-mDia2; in assay [1]) was “no binding” each time.

B2: GST-EB1-C (other, mouse, UniProt Q61166 165-268, looked up)
chain: ATQRTTAAPKAGPGMVRKNPGVGNGDDEAAELMQQVKVLKLTVEDLEKERDFYFGKLRNIELICQENEGENDPVLQRIVDILYATDEGFVIPDEGGPQEEQEEY
notes: range 165-268; also called glutathione S-transferase fused to EB1-C; not shown: glutathione S-transferase (GST) tag, N-terminal, vector pGEX-2T
For the molecule B2, the binding result in assay [2] is on record as “no binding (tested: 0.3 µM)”.

B3: EB1-C-EEKR-GFP (other, mouse, UniProt Q61166 165-268, looked up)
chain: ATQRTTAAPKAGPGMVRKNPGVGNGDDEAAELMQQVKVLKLTVEDLAKARDFYFGALANIELICQENEGENDPVLQRIVDILYATDEGFVIPDEGGPQEEQEEY
notes: range 165-268; not shown: GFP tag (vector pGFP-NKB)
B3: the binding result in assay [3] was “no binding”.

B4: EB1-C-KR-GFP (other, mouse, UniProt Q61166 165-268, looked up)
chain: ATQRTTAAPKAGPGMVRKNPGVGNGDDEAAELMQQVKVLKLTVEDLEKERDFYFGALANIELICQENEGENDPVLQRIVDILYATDEGFVIPDEGGPQEEQEEY
notes: as for B3
As for B4, the binding result in assay [3] is “no binding”.

B5: mDia2 FH1 domain fragment, in vitro transcribed and translated, 35S-labelled (other, UniProt Q9Z207 540-610, looked up)
chain: PLQPSVEGEAGPSALPPAPPALSGGVPPPPPPPPPPPPPLPGMPMPFGGPVPPPPPLGFLGGQSSIPLNLP
modifications: 35S-methionine label
notes: domain: FH1
Consider B5, for which the binding result (in the assay with GST-EB1; in assay [4]) was “no binding” in each case. For B6, the binding result in assay [2] is given as “no binding (tested: 0.3 µM)”.
